Reference: article PMC4140853 (PLoS Pathogens, 2014)
Where a chain is given by its changes, count along the chain named. Names may count otherwise.

B1: EBV gp42 I159C (C114S/I159C), reduced with TCEP and alkylated with iodoacetamide (IAA) (natural protein)
chain: GGGRVAAAAITWVPKPNVEVWPVDPPPPVNFNKTAEQEYGDKEVKLPHWTPTLHTFQVPQNYTKANCTYCNTREYTFSYKGSCFYFTKKKHTWNGCFQACAELYPCTYFYGPTPDILPVVTRNLNACESLWVGVYRVGEGNWTSLDGGTFKVYQIFGSHCTYVSKFSTVPVSHHECSFLKPCLCVSQRSNS
modifications: introduced cysteine 159 reduced with TCEP and alkylated with iodoacetamide (IAA)
B2: EBV gp42 wild type, soluble (residues 33-223) (natural protein)
chain: B1 chain with S82C, C127I
notes: also called gp42 w.t; wt gp42; source: High Five insect cells (baculovirus), secreted, purified (Talon or Ni-NTA, Superdex 200)
B3: EBV gp42 C114S/I159C double mutant (referred to as I159C), soluble (residues 33-223) (natural protein)
chain: B1 chain
notes: source: High Five insect cells (baculovirus), secreted, purified (Talon or Ni-NTA, Superdex 200)
B4: EBV gp42 C114S single mutant, soluble (residues 33-223) (natural protein)
chain: B1 chain with C127I
notes: as for B3

Experiments:
[1] = target: HLA-DQ2 (A1*0501/B1*0201) with the CLIP1 peptide covalently linked to the beta chain, soluble, Fos-Jun leucine zipper; assay: BLI
[2] = target: HLA-DQ2 (A1*0501/B1*0201) with the CLIP1 peptide covalently linked to the beta chain, soluble, Fos-Jun leucine zipper; assay: BLI; Octet RED96; site-specifically biotinylated HLA-DQ2 (CLIP1) immobilised on streptavidin (SA) tips; analyte gp42 or preformed gHgL/gp42 complex; equilibrium (steady state) analysis of the same data
[3] = target: T1, EBV gHgL (soluble gH residues 18-679 / gL residues 24-137 heterodimer) (Epstein-Barr virus, UniProt P03231;P03212); assay: cell-based or functional assay
[4] = target: T1, EBV gHgL (soluble gH residues 18-679 / …); assay: SEC; Superdex 200 gel filtration of purified proteins and their mixtures; 20 mM Tris, 150 mM NaCl, pH 7.4; peak components verified by SDS-PAGE (data not shown); details: both partners purified
[5] = target: T1, EBV gHgL (soluble gH residues 18-679 / …); assay: BLI; details: both partners purified
[6] = target: T1, EBV gHgL (soluble gH residues 18-679 / …); assay: BLI; details: both partners purified; remark: listed apart in the source
[7] = target: T1, EBV gHgL (soluble gH residues 18-679 / …); assay: BLI; Octet RED96; biotinylated gHgL immobilised on streptavidin (SA) tips, soluble gp42 as analyte; equilibrium analysis of the same data; details: both partners purified

Row | Molecule | KD1 (2:1 heterogeneous ligand fit, primary component) [1] [nM] | KD2 (2:1 heterogeneous ligand fit, secondary component) [1] [nM] | Kd [2] [nM] | Kd [6] [nM] | Kd [7] [nM] | koff [6] [s⁻¹] | kon [6] [M⁻¹ s⁻¹] | also measured
1 | EBV gp42 C114S single mutant, soluble (residues 33-223) (from UniProt P03205 33-223) (natural protein) | 88.8 | 3.45 | 97 |  |  |  |  | 
2 | EBV gp42 C114S/I159C double mutant (referred to as I159C), soluble (residues 33-223) (from UniProt P03205 33-223) (natural protein) | 59 | 1.25 | 29 |  |  |  |  | 
3 | B1 |  |  |  |  |  |  |  | virus-free cell-cell fusion (luciferase) of CHO cells expressing gB and gHgL with Daudi B cells, triggered by 0.1 or 1.0 µg soluble gp42 protein; activity relative to wt gp42 [3]: < 10 % of wild type
4 | B2 |  |  |  | 1.41 | 4.1 |  |  | stoichiometry N [4]: 1 gp42 per gHgL; t1/2 for dissociation [5]: ~30 min
5 | B3 |  |  |  | 0.77 | 13 | 0.000295 | 381000 | 
6 | B4 |  |  |  | 1.29 | 6.3 | 0.000529 | 409000 | 
